Results from EP0480381A1 (NIPPON CHEMIPHAR CO., LTD., dated 1992).

Biological target: T1, rat endothelin receptor (rat)
T1 sequence (P26684 whole entry, looked up): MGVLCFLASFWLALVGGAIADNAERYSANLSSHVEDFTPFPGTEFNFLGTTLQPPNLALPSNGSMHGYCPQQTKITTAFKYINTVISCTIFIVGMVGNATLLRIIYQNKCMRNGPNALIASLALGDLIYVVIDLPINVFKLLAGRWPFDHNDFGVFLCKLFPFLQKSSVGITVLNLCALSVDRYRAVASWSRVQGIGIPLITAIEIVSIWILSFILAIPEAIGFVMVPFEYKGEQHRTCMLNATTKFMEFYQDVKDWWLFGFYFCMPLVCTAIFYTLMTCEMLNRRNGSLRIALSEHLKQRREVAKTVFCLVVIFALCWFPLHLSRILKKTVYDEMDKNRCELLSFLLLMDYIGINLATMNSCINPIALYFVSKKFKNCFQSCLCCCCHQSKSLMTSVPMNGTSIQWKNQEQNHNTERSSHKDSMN
Assay: cell-based or functional assay

B1: endothelin-1 (peptide, UniProt P05305 53-73, looked up)
peptide: CSCSSLMDKECVYFCHLDIIW
increase of calcium concentration in cytoplasm (fura-2), EC50: ~0.02 nM

B2: endothelin-3 (peptide, UniProt P14138 97-117, looked up)
peptide: CTCFTYKDKECVYYCHLDIIW
increase of calcium concentration in cytoplasm (fura-2), EC50: ~0.02 nM
